Measured values reported in patent US20220242939A1.

How the values were obtained:
[1] = molecular target: recombinant C-terminal ApoE fragment G200-HIS (ApoE-G200-H299-10xHIS) (human) (UniProt P02649); assay: direct ELISA, target coated at 1 ug/ml, antibody in 3-fold dilutions from 500 ng/ml, OD 450 nm
[2] = molecular target: His-tagged recombinant full-length ApoE4, 10xHIS-ApoE4(1-299) (human) (UniProt P02649); assay: as above
[3] = molecular target: recombinant full-length ApoE4 (aa 1-299; SEQ ID NO:45; Abcam cat. no. ab50243) (human) (UniProt P02649); assay: direct ELISA; proteins coated at 0.1 uM, BSA peptides at 1 ug/ml; antibody in 3-fold dilutions from 3000 ng/ml; blank reduced OD 450 nm
[4] = molecular target: recombinant C-terminal ApoE fragment L198-HIS (ApoE-L198-H299-10xHIS) (human) (UniProt P02649); assay: as above
[5] = molecular target: recombinant full-length ApoE4 (aa 1-299; SEQ ID NO:45; Abcam cat. no. ab50243) (human) (UniProt P02649); assay: direct ELISA, second protocol; proteins coated at 0.1 uM, BSA peptides at 1 ug/ml; antibody in 3-fold dilutions from 3000 ng/ml; blank reduced OD 450 nm
[6] = molecular target: recombinant C-terminal ApoE fragment G200-HIS (ApoE-G200-H299-10xHIS) (human) (UniProt P02649); assay: as above
[7] = molecular target: recombinant full-length ApoE4 (aa 1-299; SEQ ID NO:45; Abcam cat. no. ab50243) (human) (UniProt P02649); assay: direct ELISA, target coated at 1 ug/ml, reference antibody in 3-fold dilutions from 1000 ng/ml, OD 450 nm
[8] = molecular target: recombinant C-terminal ApoE fragment G200-HIS (ApoE-G200-H299-10xHIS) (human) (UniProt P02649); assay: as above
[9] = molecular target: recombinant full-length ApoE4 (aa 1-299; SEQ ID NO:45; Abcam cat. no. ab50243) (human) (UniProt P02649); assay: direct ELISA; proteins coated at 0.1 uM, BSA peptides at 1 ug/ml; antibody in 3-fold dilutions from 3000 ng/ml; blank reduced OD 450 nm; remark: listed apart in the source
[10] = molecular target: recombinant C-terminal ApoE fragment A199-HIS (ApoE-A199-H299-10xHIS) (human) (UniProt P02649); assay: as above
recombinant C-terminal ApoE fragment A199-HIS (ApoE-A199-H299-10xHIS) (human), sequence (P02649 other isoform, or with tags, fused parts or gaps limits assumed): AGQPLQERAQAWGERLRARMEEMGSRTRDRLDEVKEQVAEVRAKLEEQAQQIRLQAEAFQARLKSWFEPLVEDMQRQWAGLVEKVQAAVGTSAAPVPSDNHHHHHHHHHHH

recombinant C-terminal ApoE fragment G200-HIS (ApoE-G200-H299-10xHIS) (human), sequence (P02649 other isoform, or with tags, fused parts or gaps limits assumed): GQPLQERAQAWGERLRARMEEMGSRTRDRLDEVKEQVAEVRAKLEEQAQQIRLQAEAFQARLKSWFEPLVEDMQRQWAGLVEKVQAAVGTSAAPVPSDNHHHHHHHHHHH
recombinant full-length ApoE4 (aa 1-299; SEQ ID NO:45; Abcam cat. no. ab50243) (human), sequence (P02649 19-317 C130R limits assumed): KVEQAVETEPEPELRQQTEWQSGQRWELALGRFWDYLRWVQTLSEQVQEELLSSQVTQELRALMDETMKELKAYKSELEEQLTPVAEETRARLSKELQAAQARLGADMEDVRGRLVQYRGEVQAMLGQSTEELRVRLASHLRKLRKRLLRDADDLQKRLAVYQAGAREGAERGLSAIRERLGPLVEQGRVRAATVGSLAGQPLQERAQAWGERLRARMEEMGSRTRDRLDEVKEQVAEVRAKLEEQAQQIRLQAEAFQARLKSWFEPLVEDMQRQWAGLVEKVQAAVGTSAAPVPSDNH
recombinant C-terminal ApoE fragment L198-HIS (ApoE-L198-H299-10xHIS) (human), sequence (P02649 other isoform, or with tags, fused parts or gaps limits assumed): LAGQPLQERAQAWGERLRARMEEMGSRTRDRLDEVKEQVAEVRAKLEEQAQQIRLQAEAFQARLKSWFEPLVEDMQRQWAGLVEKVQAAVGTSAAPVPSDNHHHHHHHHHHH
His-tagged recombinant full-length ApoE4, 10xHIS-ApoE4(1-299) (human), sequence (P02649 other isoform, or with tags, fused parts or gaps limits assumed): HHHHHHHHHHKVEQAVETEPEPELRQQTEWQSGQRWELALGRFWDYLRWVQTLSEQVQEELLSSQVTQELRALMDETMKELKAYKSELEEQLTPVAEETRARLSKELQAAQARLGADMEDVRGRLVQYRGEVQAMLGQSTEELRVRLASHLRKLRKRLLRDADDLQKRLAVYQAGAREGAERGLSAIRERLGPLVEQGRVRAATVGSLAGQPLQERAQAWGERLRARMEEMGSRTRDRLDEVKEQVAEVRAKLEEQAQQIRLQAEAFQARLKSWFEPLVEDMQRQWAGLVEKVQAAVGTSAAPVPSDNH

Work on “reference anti-ApoE C-terminal antibody ApoE E-8 mouse monoclonal (Santa Cruz Biotechnology, cat. no. sc-393302)” yielded an EC50 (read off the curve) [1] of 4 ng/mL, an EC50 (read off the curve) [2] of 4 ng/mL and an EC50 (read off the curve) [3] of 8 ng/mL. For the same substance, the EC50 (read off the curve) [4] was 2 ng/mL, the EC50 (read off the curve) [5] was 4 ng/mL and the EC50 (read off the curve) [6] was 4 ng/mL. It also gave an EC50 (read off the curve) [7] of 4 ng/mL, an EC50 (read off the curve) [8] of 5 ng/mL and an EC50 (read off the curve) [9] of 6 ng/mL. It also gave an EC50 (read off the curve) [10] of 5 ng/mL.
